According to patent US20230416347A1:

Experiments:
Assay in all cases: EuLISA
[1] = molecular target: KEN hATTR extract (human) (UniProt P02766)
TAL ALκ liver extract = molecular target: TAL ALκ liver extract
rVλ6Wil fibrils = molecular target: rVλ6Wil fibrils
[2] = molecular target: Per125 wtATTR extract (human) (UniProt P02766)
SHI ALλ liver extract = molecular target: SHI ALλ liver extract

| LogEC50 [1] | Max [1] | LogEC50 (TAL ALκ liver extract) | Max (TAL ALκ liver extract) | EC50 (rVλ6Wil fibrils) | LogEC50 (rVλ6Wil fibrils) | Max (rVλ6Wil fibrils) | LogEC50 [2] | Max [2] | LogEC50 (SHI ALλ liver extract) | Max (SHI ALλ liver extract) | Substance |
| --- | --- | --- | --- | --- | --- | --- | --- | --- | --- | --- | --- |
| 2.39 -log(M) | 294000 | – | – | – | – | – | – | – | – | – | m11-1F4 (antibody) |
| -1.36 -log(M) | 19700 | – | – | – | – | – | – | – | – | – | chimeric antibody c11-1F4 |
| 9.06 -log(M) | -0.8 | 3 -log(M) | 2220 | 1280 nM | 5.89 -log(M) | 39.3 | 7.92 -log(M) | 8.38 | 7.88 -log(M) | 2.5 | hIgG1 (antibody) |
